Assay results as given in patent US20030148264A1, “Phage displayed PDZ domain ligands” (GENENTECH, INC., priority 2001, published 2003).
Read-outs that look alike come from different tables or passages of the source. Where no end group is shown, it is not given here.

Assays:
[1] = target: T1, Human Scribble (KIAA0147, NP_056171.1) PDZ2 (aa 788-913) (Homo sapiens, UniProt Q14160); experiment: Carboxyl-terminal phage display binding selection; details: number of phage-selected clones with this sequence, siblings counted as individuals
T1 construct: Human Scribble (KIAA0147, NP_056171.1) PDZ2 (aa 788-913); GST; made in house
T1 sequence (Q14160 788-913 isoform Q14160-2): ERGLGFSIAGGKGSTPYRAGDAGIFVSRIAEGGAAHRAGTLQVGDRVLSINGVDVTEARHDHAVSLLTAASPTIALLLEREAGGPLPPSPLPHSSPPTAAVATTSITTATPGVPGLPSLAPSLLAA
Description: Phage display technology was further employed essentially as described above, with minor modifications, to select ligands of a variety of PDZ domains (including additional, independent rounds of selection for ERBIN PDZ and MAGI3 PDZ3). Briefly, peptide ligands were selected from pools of randomized peptides. […] The peptides were fused to the M13 phage major coat proteins such that the C-termini of the randomized peptides were free and available for binding. PDZ domains were utilized as their GST-fusions (referred to in this Example simply as “PDZ domains”). The particular amino acids comprising each PDZ domain target are indicated in the heading of Tables 11-29.
Peptide ligands were selected and identified for 17 (18 including ERBIN) PDZ domains. […] At the bottom of each table, the occurrence of each amino acid residue is expressed as a percentage of the total number of residues in the relevant position. Siblings (peptides with identical DNA that appear as more than one copy) were counted as individuals. The numbers for occurrence were corrected for codon usage. The relative codon usage is indicated after each amino acid in the header of the bottom section of each table. “n” refers to the number of sequences (siblings counted as individuals) on which the occurrence value is based; this number is also shown as normalized with respect to codon usage.

hZO1 PDZ1 = target: T2, hZO1 PDZ1 (Homo sapiens, UniProt Q07157); experiment: IC50 (nM) | hZO1 PDZ1 | 5 nM | B01-88 | Bio-GGWRWTTWL (SEQ ID NO: 684) | 36 nM
T2 construct: Human ZO1 (NM_003257) PDZ1; GST; made in house
T2 sequence (Q07157 23-110): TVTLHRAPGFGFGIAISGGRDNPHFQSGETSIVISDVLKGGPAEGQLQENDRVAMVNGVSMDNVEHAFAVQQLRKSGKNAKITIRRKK
Procedure: Table printed on a drawing sheet, FIG. 12A
Head of the field: IC50 (nM) | hZO1 PDZ1 | 5 nM | B01-88 | Bio-GGWRWTTWL (SEQ ID NO: 684) | 36 nM
(§1) The patent's description of the figure: FIG. 12. IC50 values indicating binding affinities of various peptides to PDZ domains
First copying reader's note: Upper left part of a table split over FIG. 12A-12D; further receptor columns and further peptides are on the other sheets.
Where the first naming reader finds the target: head: IC50 (nM) | hZO1 PDZ1 | 5 nM | B01-88

Magi1 PDZ3 = experiment: IC50 (nM) | Magi1 PDZ3 | 0.625 nM | B01-87 | Bio-GGWFLDV (SEQ ID NO 686) | 15.62 nM
Procedure: (§2) Table printed on a drawing sheet, Fig. 12
Head of the field: IC50 (nM) | Magi1 PDZ3 | 0.625 nM | B01-87 | Bio-GGWFLDV (SEQ ID NO 686) | 15.62 nM
as §1
(§3) First copying reader's note: The first column (three lines per block: protein, accession, PDZ domain) is treated as one cell spanning its block; an empty ruled row above the IC50/SD head is left out; #### cells are spreadsheet overflow marks as printed; several heads and cells are cut off at the left by the print (ample, eptide No, EQ ID NO).
Where the first naming reader finds the target: head: IC50 (nM) | Magi1 PDZ3 | 0.625 nM | B01-87

[2] = target: GST-MAGI-3 PDZ 2 (aa. 584-707 of SEQ ID NO:200) (human) [GST: P08515]; experiment: alanine scan, competition ELISA
Chain of GST-MAGI-3 PDZ 2 (aa. 584-707 of SEQ ID NO:200) (human) [GST: P08515] (P08515 whole entry): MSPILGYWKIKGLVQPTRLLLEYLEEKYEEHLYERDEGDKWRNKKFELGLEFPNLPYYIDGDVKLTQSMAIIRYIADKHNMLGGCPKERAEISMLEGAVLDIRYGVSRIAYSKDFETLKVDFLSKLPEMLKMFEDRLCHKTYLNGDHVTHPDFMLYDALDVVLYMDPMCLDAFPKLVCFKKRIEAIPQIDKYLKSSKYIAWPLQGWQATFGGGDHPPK

[3] = target: GST-MAGI-3 PDZ 2 (aa. 584-707 of SEQ ID NO:200) (human) [GST: P08515]; experiment: competition ELISA: peptide blocks GST-PDZ binding to immobilized peptide
Erbin PDZ = target: T3, Erbin PDZ (Homo sapiens, UniProt Q96RT1); experiment: IC50 (nM) | Erbin PDZ | 2 nM | PDZ501 | Bio-Ac-GGWETWV (SEQ ID NO 687) | 37 nM
T3 construct: made in house; host or cells: E. coli
T3 sequence (Q96RT1 1258-1412): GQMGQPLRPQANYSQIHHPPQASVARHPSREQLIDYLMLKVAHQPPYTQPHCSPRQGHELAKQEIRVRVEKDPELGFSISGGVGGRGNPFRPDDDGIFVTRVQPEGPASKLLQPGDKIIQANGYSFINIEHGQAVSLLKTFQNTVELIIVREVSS
Procedure: as §2, §1, §3
Where the first naming reader finds the target: head: IC50 (nM) | Erbin PDZ | 2 nM | PDZ501

MAGI 3 PDZ3 = target: T4, MAGI 3 PDZ3 (Homo sapiens, UniProt Q5TCQ9); experiment: Competition ELISA, peptide blocking PDZ domain binding to immobilized peptide
T4 construct: PDZ2 and PDZ3 were purified as glutathione S-transferase (GST) fusions from E coli; GST; made in house; host or cells: E. coli
T4 sequence (Q5TCQ9 726-808 limits assumed): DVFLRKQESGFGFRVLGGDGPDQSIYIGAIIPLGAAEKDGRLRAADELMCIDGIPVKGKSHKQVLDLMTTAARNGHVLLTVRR
Description: (§4) Many methods are known and can be used to identify the binding affinities of PDZ domain binding ligands (e.g. peptides, proteins, small mollecules, etc.); for example, binding affinities can be determined as IC50 values using competition ELISAs. The IC50 value is defined as the concentration of ligand which blocks 50% of PDZ domain binding to a ligand. For example, in solid phase assays, assay plates may be prepared by coating microwell plates (preferably treated to efficiently absorb protein) with neutravidin, avidin or streptavidin. Non-specific binding sites are then blocked through addition of a solution of bovine serum albumin (BSA) or other proteins (for example, nonfat milk) and then washed, preferably with a buffer containing a detergent, such as Tween-20. A biotinylated known PDZ-domain ligand (for example, the phage peptides or cognate protein as fusions with GST or other such molecule to facilitate purification and detection) is prepared and bound to the plate. Serial delutions of the ligand to be tested with a PDZ domain polypeptide arc prepared and contacted with the bound ligand. The plate coated with the immobilized ligandis washed before adding each binding reaction to the wells and briefly incubated. After further washing, the binding reactions are detected, often with an antibody recognizing the non-PDZ fusion partner and a labeled (such as horseradish peroxidase (HRP), alkaline phosphatase (AP), or a fluorescent tag such as fluorescein) secondary antibody recognizing the primary antibody. The plates are then developed with the appropriate substrate (depending on the label) and the signal quantified, such as using a spectrophotometric plate reader. The absorption signal may be fit to a binding curve using a least squares fit. Thus the ability of the various ligands to inhibit PDZ domain from binding a known PDZ-domain ligand can be measured.
(§5) Peptides corresponding to the selected sequences were synthesized and assayed for binding (Table 2). […] The data also confirmed that the minimal tetrapeptide selectants from the PDZ2 sort bind PDZ2 with high affinity. […] It appears that this large difference in binding affinity is attributable to the residue at P(−1), which is a Trp in the selected peptide as opposed to a Lys in PTEN/MMAC (compare HTQITWV with HTQITKV (SEQ ID NO:220), Table 2; The IC50 values are the concentrations of peptide that blocked 50% of PDZ domain binding to immobilized peptide in an ELISA).

MAGI 3 PDZ2 = target: T5, MAGI 3 PDZ2 (Homo sapiens, UniProt Q5TCQ9); experiment: as above; set-up: made in house; host or cells: E. coli
T5 sequence (Q5TCQ9 584-707 isoform Q5TCQ9-2): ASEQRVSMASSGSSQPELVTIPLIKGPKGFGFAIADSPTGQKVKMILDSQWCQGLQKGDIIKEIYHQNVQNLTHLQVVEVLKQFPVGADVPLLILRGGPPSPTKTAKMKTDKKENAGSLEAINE
Description: as §4
Prokaryotic: The ERBIN PDZ domain (aa. 1217-1371 of SEQ ID NO:201) or MAGI-3 PDZ 2 (aa. 584-707 of SEQ ID NO:200) were cloned into the EcoR 1/Not 1 or BamH 1/Not 1 sites of pGEX 6P-1 and pGEX 4T-3 E. coli expression vectors (Pharmacia) respectively. Expression and affinity purification of E coli expressed GST-proteins was performed as recommended by the manufacturer (Pharmacia).
as §5

[4] = target: T6, ERBIN PDZ-GST fusion protein (aa. 1217-1371 of SEQ ID NO:201) (human, UniProt P08515 1-218 = GST); experiment: competition ELISA: ERBIN PDZ-GST binding to immobilized biotin-WETWV
T6 sequence (P08515 whole entry, the tested form may be a part): as the sequence (P08515 whole entry) above

[5] = target: T6, ERBIN PDZ-GST fusion protein (aa. …); experiment: as above; remark: listed apart in the source
[6] = target: T6, ERBIN PDZ-GST fusion protein (aa. …); experiment: as above; remark: listed apart in the source

For “RKSRTFETWV [phage-selected peptide, Scribble PDZ2]”, the occurence [1] was 1.

For “Ac-WRWTTWL [9 | 01-103, SEQ ID NO: 648: N^AC-WRWTTWL]”, the IC50 (hZO1 PDZ1) was 27 nM.

“Ac-YRWTTWL [10 | 01-28, SEQ ID NO: 649: N^AC-YRWTTWL]” showed an IC50 (hZO1 PDZ1) of 31 nM.

Molecule “RSRYRFTDV [phage-selected peptide, Scribble PDZ2]” has an occurence [1] of 6.

“EQ ID NO 649 N^AC-YRWTTWL (Ac-YRWTTWL) [10 | 01-28]” gave an IC50 (Magi1 PDZ3) of 32600 nM.

CSWA (peptide) was tested, and the fold reduction in binding against CSWV [2] was over 100 fold and the IC50 [3] was 400 µM.

With CAWV (peptide) the fold reduction in binding against CSWV [2] was 5 fold and the IC50 [3] was 7.3 µM.

“Ac-WRWTTWV [13 | 01-31, EQ ID NO 652 N^AC-WRWTTWV]” gave an IC50 (Erbin PDZ) of 789 ± 62 nM and an IC50 (Magi1 PDZ3) of 32600 nM.

In the case of SEQ ID NO 671 NAC-WFLDI [32 | 01-14], the IC50 (Magi1 PDZ3) is reported as 408 ± 50 nM.

In the case of ASKVTWV [ASKVTWV], the IC50 (MAGI 3 PDZ3) is reported as over 1000 µM and the IC50 (MAGI 3 PDZ2) is reported as 0.8 µM.

In the case of “Ac-FETDL [1 | 01-104, SEQ ID NO 640 N^AC-FETDL]”, the IC50 (Erbin PDZ) is reported as 101000 nM and the IC50 (Magi1 PDZ3) is reported as 91500 nM.

“EQ ID NO 648 N^AC-WRWTTWL (Ac-WRWTTWL) [9 | 01-103]” was tested, and the IC50 (Magi1 PDZ3) was 180 ± 59 nM.

In the case of Ac-WETAV [Ac-WETAV], the IC50 [4] is reported as 34 µM, the “fold less potent than Ac-WETWV” value [4] is reported as 69.3 fold and the IC50 [5] is reported as 34 µM. The “fold less potent than Ac-WETWV” value [5] was 69.3 fold.

In the case of Ac-WESWV [Ac-WESWV], the IC50 [6] is reported as 2.5 µM and the “fold less potent than Ac-WETWV” value [6] is reported as 5.2 fold.

For Ac-WEVWV [Ac-WEVWV], the IC50 [6] was 4.8 µM and the “fold less potent than Ac-WETWV” value [6] was 9.8 fold.

With Ac-WDTWV [Ac-WDTWV] the IC50 [6] was 1.7 µM and the “fold less potent than Ac-WETWV” value [6] was 3.4 fold.

For Ac-WETFV [Ac-WETFV], the IC50 [5] was 14.5 µM and the “fold less potent than Ac-WETWV” value [5] was 295 fold.

For Ac-WETYV [Ac-WETYV], the IC50 [5] was 42.5 µM and the “fold less potent than Ac-WETWV” value [5] was 86.7 fold.
